Results reported in the supplement of paper PMC9112550, “Optimization of the antimicrobial peptide Bac7 by deep mutational scanning” (BMC Biology, 2022).

Test system: Escherichia coli TOP10
Assay: shrunken log2 fold change of peptide-encoding DNA abundance (4.5 h post-induction vs induction); higher = less antimicrobial activity (less host growth inhibition)
Details: time post-induction: 4.5 h; library: site-saturation at positions 5, 18, 19, 20
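Further: peptides expressed intracellularly from a pBAD plasmid library in pooled LB shake-flask culture, induced with 0.3% L-arabinose, DNA abundance read by NGS, three biological replicates, DESeq2 with apeglm shrinkage.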

Sequence	shrunken log2 fold change
RRIRQRPPRLPRPRPRPHPYPRP	-0.0131
RRIRQRPPRLPRPRPRPHQIPRP	0.0211
RRIRQRPPRLPRPRPRPHTFPRP	-0.174
RRIRQRPPRLPRPRPRPHVAPRP	-0.0333
RRIRQRPPRLPRPRPRPHVRPRP	-0.00149
RRIRQRPPRLPRPRPRPHVSPRP	-0.108
RRIRQRPPRLPRPRPRPHWSPRP	-0.161
RRIRQRPPRLPRPRPRPHYVPRP	-0.123
RRIRQRPPRLPRPRPRPIALPRP	-0.213
RRIRQRPPRLPRPRPRPICEPRP	0.0925
RRIRQRPPRLPRPRPRPICHPRP	-0.14
RRIRQRPPRLPRPRPRPIDRPRP	0.118
RRIRQRPPRLPRPRPRPIETPRP	0.00824
RRIRQRPPRLPRPRPRPIFLPRP	0.805
RRIRQRPPRLPRPRPRPIFVPRP	-0.217
RRIRQRPPRLPRPRPRPIHLPRP	-0.137
RRIRQRPPRLPRPRPRPIIIPRP	-0.197
RRIRQRPPRLPRPRPRPIKNPRP	-0.186
RRIRQRPPRLPRPRPRPIKPPRP	0.0492
RRIRQRPPRLPRPRPRPILGPRP	0.0906
RRIRQRPPRLPRPRPRPIMYPRP	-0.0857
RRIRQRPPRLPRPRPRPINDPRP	-0.293
RRIRQRPPRLPRPRPRPINVPRP	-0.0732
RRIRQRPPRLPRPRPRPIPVPRP	-0.221
RRIRQRPPRLPRPRPRPIQFPRP	-0.282

Sequence	shrunken log2 fold change
RRIRQRPPRLPRPRPRPIQHPRP	0.14
RRIRQRPPRLPRPRPRPIQQPRP	-0.039
RRIRQRPPRLPRPRPRPISTPRP	-0.503
RRIRQRPPRLPRPRPRPISYPRP	0.0146
RRIRQRPPRLPRPRPRPITAPRP	-0.503
RRIRQRPPRLPRPRPRPITKPRP	-0.0284
RRIRQRPPRLPRPRPRPITRPRP	0.0297
RRIRQRPPRLPRPRPRPITSPRP	-0.0775
RRIRQRPPRLPRPRPRPIVAPRP	-0.00611
RRIRQRPPRLPRPRPRPIVWPRP	-0.287
RRIRQRPPRLPRPRPRPIWNPRP	-0.183
RRIRQRPPRLPRPRPRPIWYPRP	0.0288
RRIRQRPPRLPRPRPRPIYWPRP	0.0909
RRIRQRPPRLPRPRPRPKATPRP	0.18
RRIRQRPPRLPRPRPRPKCVPRP	-0.018
RRIRQRPPRLPRPRPRPKESPRP	0.0355
RRIRQRPPRLPRPRPRPKGAPRP	0.0159
RRIRQRPPRLPRPRPRPKHDPRP	-0.121
RRIRQRPPRLPRPRPRPKHKPRP	-0.0629
RRIRQRPPRLPRPRPRPKHTPRP	-0.224
RRIRQRPPRLPRPRPRPKISPRP	-0.144
RRIRQRPPRLPRPRPRPKKEPRP	0.00476
RRIRQRPPRLPRPRPRPKKFPRP	-0.097
RRIRQRPPRLPRPRPRPKKLPRP	-0.296
RRIRQRPPRLPRPRPRPKLPPRP	0.146

Sequence	shrunken log2 fold change
RRIRQRPPRLPRPRPRPKLYPRP	-0.0149
RRIRQRPPRLPRPRPRPKREPRP	0.119
RRIRQRPPRLPRPRPRPKTMPRP	-0.0635
RRIRQRPPRLPRPRPRPKTYPRP	-0.241
RRIRQRPPRLPRPRPRPKWHPRP	0.48
RRIRQRPPRLPRPRPRPKWLPRP	0.0992
RRIRQRPPRLPRPRPRPKWQPRP	0.0435
RRIRQRPPRLPRPRPRPKYGPRP	-0.3
RRIRQRPPRLPRPRPRPKYRPRP	-0.0976
RRIRQRPPRLPRPRPRPLDNPRP	-0.151
RRIRQRPPRLPRPRPRPLECPRP	-0.184
RRIRQRPPRLPRPRPRPLERPRP	0.0228
RRIRQRPPRLPRPRPRPLFIPRP	-0.673
RRIRQRPPRLPRPRPRPLGGPRP	-0.12
RRIRQRPPRLPRPRPRPLHKPRP	0.0733
RRIRQRPPRLPRPRPRPLHPPRP	-0.0917
RRIRQRPPRLPRPRPRPLIDPRP	-0.206
RRIRQRPPRLPRPRPRPLKNPRP	-0.237
RRIRQRPPRLPRPRPRPLKPPRP	0.0722
RRIRQRPPRLPRPRPRPLMKPRP	0.158
RRIRQRPPRLPRPRPRPLMPPRP	-0.0453
RRIRQRPPRLPRPRPRPLPFPRP	-0.782
RRIRQRPPRLPRPRPRPLQPPRP	-0.0373
RRIRQRPPRLPRPRPRPLRGPRP	0.664
RRIRQRPPRLPRPRPRPLRIPRP	0.116

Sequence	shrunken log2 fold change
RRIRQRPPRLPRPRPRPLSIPRP	-0.325
RRIRQRPPRLPRPRPRPLTPPRP	0.31
RRIRQRPPRLPRPRPRPLVDPRP	0.187
RRIRQRPPRLPRPRPRPLWWPRP	0.121
RRIRQRPPRLPRPRPRPMAIPRP	-0.326
RRIRQRPPRLPRPRPRPMALPRP	0.00414
RRIRQRPPRLPRPRPRPMAVPRP	0.00724
RRIRQRPPRLPRPRPRPMCLPRP	-0.184
RRIRQRPPRLPRPRPRPMCMPRP	0.0416
RRIRQRPPRLPRPRPRPMHRPRP	-0.0558
RRIRQRPPRLPRPRPRPMIEPRP	-0.118
RRIRQRPPRLPRPRPRPMIYPRP	-0.0652
RRIRQRPPRLPRPRPRPMKIPRP	-0.0609
RRIRQRPPRLPRPRPRPMKMPRP	0.0133
RRIRQRPPRLPRPRPRPMNFPRP	-0.01
RRIRQRPPRLPRPRPRPMNMPRP	0.0227
RRIRQRPPRLPRPRPRPMPFPRP	-0.0697
RRIRQRPPRLPRPRPRPMSKPRP	-0.0682
RRIRQRPPRLPRPRPRPMVKPRP	0.0691
RRIRQRPPRLPRPRPRPMYIPRP	-0.0435
RRIRQRPPRLPRPRPRPNAFPRP	0.227
RRIRQRPPRLPRPRPRPNCHPRP	-0.548
RRIRQRPPRLPRPRPRPNDFPRP	0.0233
RRIRQRPPRLPRPRPRPNDHPRP	-0.884
RRIRQRPPRLPRPRPRPNGEPRP	0.0404

Sequence	shrunken log2 fold change
RRIRQRPPRLPRPRPRPNGSPRP	-0.00154
RRIRQRPPRLPRPRPRPNGWPRP	-0.0145
RRIRQRPPRLPRPRPRPNHKPRP	-0.493
RRIRQRPPRLPRPRPRPNHVPRP	0.0349
RRIRQRPPRLPRPRPRPNKTPRP	-0.0379
RRIRQRPPRLPRPRPRPNLIPRP	-0.556
RRIRQRPPRLPRPRPRPNMEPRP	-0.404
RRIRQRPPRLPRPRPRPNPVPRP	-0.117
RRIRQRPPRLPRPRPRPNQTPRP	-0.0346
RRIRQRPPRLPRPRPRPNSKPRP	-0.429
RRIRQRPPRLPRPRPRPNSVPRP	-0.265
RRIRQRPPRLPRPRPRPNTQPRP	-0.621
RRIRQRPPRLPRPRPRPNVLPRP	-0.0544
RRIRQRPPRLPRPRPRPNVMPRP	-0.254
RRIRQRPPRLPRPRPRPNVVPRP	0.0298
RRIRQRPPRLPRPRPRPPAAPRP	0.778
RRIRQRPPRLPRPRPRPPEGPRP	0.228
RRIRQRPPRLPRPRPRPPFHPRP	0.102
RRIRQRPPRLPRPRPRPPFKPRP	-0.0455
RRIRQRPPRLPRPRPRPPFSPRP	-0.0357
RRIRQRPPRLPRPRPRPPGGPRP	0.448
RRIRQRPPRLPRPRPRPPGRPRP	0.853
RRIRQRPPRLPRPRPRPPGVPRP	0.462
RRIRQRPPRLPRPRPRPPGYPRP	0.225
RRIRQRPPRLPRPRPRPPHGPRP	1.06

Sequence	shrunken log2 fold change
RRIRQRPPRLPRPRPRPPHNPRP	1.15
RRIRQRPPRLPRPRPRPPIAPRP	0.104
RRIRQRPPRLPRPRPRPPKEPRP	-0.168
RRIRQRPPRLPRPRPRPPLHPRP	0.24
RRIRQRPPRLPRPRPRPPLTPRP	0.0676
RRIRQRPPRLPRPRPRPPMFPRP	-0.325
RRIRQRPPRLPRPRPRPPMRPRP	0.862
RRIRQRPPRLPRPRPRPPNCPRP	0.0242
RRIRQRPPRLPRPRPRPPNEPRP	0.266
RRIRQRPPRLPRPRPRPPNGPRP	-0.00787
RRIRQRPPRLPRPRPRPPNLPRP	-0.00283
RRIRQRPPRLPRPRPRPPPEPRP	0.952
RRIRQRPPRLPRPRPRPPPKPRP	0.876
RRIRQRPPRLPRPRPRPPQGPRP	0.434
RRIRQRPPRLPRPRPRPPQNPRP	0.663
RRIRQRPPRLPRPRPRPPQWPRP	0.525
RRIRQRPPRLPRPRPRPPRIPRP	0.0686
RRIRQRPPRLPRPRPRPPSAPRP	0.5
RRIRQRPPRLPRPRPRPPWLPRP	0.307
RRIRQRPPRLPRPRPRPPWVPRP	0.696
RRIRQRPPRLPRPRPRPQAFPRP	-0.0347
RRIRQRPPRLPRPRPRPQCGPRP	-0.133
RRIRQRPPRLPRPRPRPQCIPRP	-0.0582
RRIRQRPPRLPRPRPRPQCMPRP	-0.496
RRIRQRPPRLPRPRPRPQCNPRP	-0.0983
